The values below come from article PMC3715500.

This assay has as its target Rac-GFP (UniProt P63000). Nature of the assay: FRET or BRET; FLIM-FRET (donor lifetime, time-gated fast-FLIM prototype, five gates of 2.25 ns, up to 1 FLIM image per s) in living 3T3 cells co-transfected with donor Rac-GFP and acceptor PBD-mCherry or mCherry alone; analysed by mfD, polar approach and moments method. On the technique in general: BRET reads energy transfer from a luciferase to a nearby fluorophore.

Chain of PBD-mCherry (domain or fragment) (Q13153 2-545): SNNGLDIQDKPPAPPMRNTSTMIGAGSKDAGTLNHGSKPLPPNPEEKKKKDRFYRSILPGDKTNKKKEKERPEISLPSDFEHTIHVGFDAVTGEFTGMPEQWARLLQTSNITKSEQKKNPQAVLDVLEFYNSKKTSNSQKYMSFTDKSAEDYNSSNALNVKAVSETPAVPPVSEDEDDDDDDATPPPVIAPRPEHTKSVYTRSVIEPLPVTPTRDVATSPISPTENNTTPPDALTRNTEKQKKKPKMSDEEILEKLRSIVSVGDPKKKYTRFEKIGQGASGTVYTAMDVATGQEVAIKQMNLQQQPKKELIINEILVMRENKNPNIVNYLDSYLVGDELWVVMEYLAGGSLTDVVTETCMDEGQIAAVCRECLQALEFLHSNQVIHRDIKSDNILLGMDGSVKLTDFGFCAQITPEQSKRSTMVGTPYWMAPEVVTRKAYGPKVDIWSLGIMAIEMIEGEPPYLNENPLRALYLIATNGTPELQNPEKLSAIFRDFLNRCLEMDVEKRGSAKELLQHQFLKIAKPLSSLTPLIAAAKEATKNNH

PBD-mCherry (domain or fragment) returned a mean donor lifetime <τ> (population of cells, n = 10) of 2.37 ns; a mean donor lifetime <τ> (single cell, corrected) of 2.21; a minimal fraction of interacting donor mfD (representative cell) of 0.19; a non-corrected average donor lifetime (representative cell) of 2.3 ns.
